Assay results from the nanobody polyreactivity screen of Harvey et al. (2022).

Assay: yeast display, Sf9 membrane polyspecificity reagent, FACS + sequencing; frameworks hold sequencing errors
In short: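 A synthetic nanobody library was expressed on Saccharomyces cerevisiae BJ5465 by galactose induction for 36–48 hours. The library was stained for 1 hour at 4 °C with 10% biotinylated, detergent-solubilized Sf9 membrane reagent and enriched with streptavidin microbeads before FACS. Low and high (top ~1%) gates were set on anti-HA fluorescence for expression and streptavidin fluorescence for reagent binding, and each polyreactivity label reflects the gate of origin.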

Row | Sequence | polyreactivity (PSR sort gate)
1 | QVQLVESGGGLVQAGGSLRLSCAASGLTFVRYAMGWYRQAPGKERELVAVISYSGARTYYADSVKGRFTISRDNAKNTVYLQMNSLKPEDTAVYYCAARQYTTGKYDSWGQGTQVTVSS | high polyreactivity
2 | QVQLVESGGGLVQAGGSLRLSCAASGLTFVYYAMGWYRQAPGKERELVAVISSSGGSTYYADSVKGRFTISRDNAKNTVYLQMNSLKPEDTAVYYCAAPRQVYYQTDNDYWGQGTQVTVSS | high polyreactivity
3 | QVQLVESGGGLVQAGGSLRLSCAASGLTFVYYTRGWYRQAPGKERELVATITFTGGNTYYADSVKGRFTISRDNAKNTVYLQMNCLKPEDTAVYYCAKDSGPYKAEYDYGGQGTQVTVSS | low polyreactivity
4 | QVQLVESGGGLVQAGGSLRLSCAASGLTFWEYAMGWYRQAPGKERELVAAITWGGNTYYADSVKGRFTISRDNAKNTVYLQMNSLKPEDTAVYYCAARGYYLTGGFRRYYYWGQGTQVTVSS | high polyreactivity
5 | QVQLVESGGGLVQAGGSLRLSCAASGLTFWPYVMGWYRQAPGKERELVAAIDDTGITYYADSVKGRFTISRDNEKNTVYLQMNTLKPEDTAVYYCATDWDYYFPWIYPSDAGPEDGYCGQGTQVTVSS | low polyreactivity
6 | QVQLVESGGGLVQAGGSLRLSCAASGLTFWRYTMGWYRPAPGKERELVAVITYRGGSTYYADSVKGRFTISRDYAKNTVYLQMNSLKPEDTAVYYCAAGLSTYGLTYDYWGQGTQVTVSS | high polyreactivity
7 | QVQLVESGGGLVQAGGSLRLSCAASGLTFWRYVMGWYRQAPGKERELVATISIGGSTNYADSVKGRVTISRDNAKNTVYLQMNSLKPEDTAVYYCAAKFRGDVFPYYYWGQGTQVTVSS | high polyreactivity
8 | QVQLVESGGGLVQAGGSLRLSCAASGLTFWVYTMGWYRQAPGKERELVAAITRGGSTTYADSVKGRFTISRDNAKNSVYLQMNSLQPEDTAVYYCNAVYKYSVVYKLDYWGQGTQVTVSS | high polyreactivity
9 | QVQLVESGGGLVQAGGSLRLSCAASGLTFWYYAMGRYRHAPRKERELVATITWSGRTYYADSVKGRFTISRDNAKNTVYLQMNSLKTEDTAVYYCNAVKGRLQYSYDYWGQGTQVTVSS | high polyreactivity
10 | QVQLVESGGGLVQAGGSLRLSCAASGLTFWYYAMGWYRQAPGKERELVAAITSVGSTYYADSVKGRFTISRDNAKNTVYLQMNSLKPEDTAVYYCAAGVPPLYFRRGGDYWGQGTQGTVSS | high polyreactivity
11 | QVQLVESGGGLVQAGGSLRLSCAASGLTFYANAMGWYRQAPGKERELVAAITSSGGSTYYADSVKGRFTISRDNAKNTVYLQMNSLKPDDTAVYYCNAYFRPRYGYWGQGTQVTVSS | high polyreactivity
12 | QVQLVESGGGLVQAGGSLRLSCAASGLTFYDYAKGWYRQAPGKELELVADIDFNGGSTSYADSVKGRFTISRDNAKNTVYLQMNSLKPEDTAVYYCAVDFIYWFHSRSSYIYDYWGQGSQVTVSS | low polyreactivity
13 | QVQLVESGGGLVQAGGSLRLSCAASGLTFYEYAMGWYRQAPGKERELVAAISWRGDSTHYADSVKGRFTISRDNAKNTVYLQMNSLKPEDTAVYYCNTRRLHGWLYGYEYWGQGTQVTVSS | low polyreactivity
14 | QVQLVESGGGLVQAGGSLRLSCAASGLTFYFNAMVWYRQAPVKERQLVAAIDWGGGSTYYADSVKGRFTISRDNAKNTVYLQMNSLNPEDTAVYYCGARGYYYNYDVNYWVQGTQVTVSS | low polyreactivity
15 | QVQLVESGGGLVQAGGSLRLSCAASGLTFYGYGMGWYRQAPGKERELVASITSGGNTYYADSVKGRFTISRDNAKNTVYLQMNSLKPEDTAVYYCNADDGGPGVVLPTKEYDYWGQGTQVTVSS | low polyreactivity
16 | QVQLVESGGGLVQAGGSLRLSCAASGLTFYKYAMGWYRQAPGKERELVAAITSTGGSTYYADSVKGRFTISRDNAKNTVYLQMNSLKPEDTAVYYCAAQWYTALYYWGQGTQVTVSS | high polyreactivity

Row | Sequence | polyreactivity (PSR sort gate)
17 | QVQLVESGGGLVQAGGSLRLSCAASGLTFYLYAMGWYRPAPGKERELVAGISYRGASTYYADSVKGRFTISRDNAKNTVYLQMNSLKPEDTAVYYCAADDTTPNGVYWGQGTQVTVSS | low polyreactivity
18 | QVQLVESGGGLVQAGGSLRLSCAASGLTFYLYVMGWYRQAPGKERELVAAISRRGGTTYYADSVKGRFTISRDNAKNTVYLQMNSLKPEDTAVYYCAADFFAGTQRTFDYWGQGTQVTVSS | high polyreactivity
19 | QVQLVESGGGLVQAGGSLRLSCAASGLTFYLYVMGWYRQAPWKERELVAAISRRGGSTYYADSVKGRFTISRDNAKNTVYLQMNSLKPEDTAVYYCAARVYGTYRGIQYGYWGQGTQVTVSS | high polyreactivity
20 | QVQLVESGGGLVQAGGSLRLSCAASGLTFYNARGWYRQAPGKERELVAAISGTVSRTYYADSVKGRFTISRDNAKNTVYLEMNSLKPEDTAVYYCAVRWYGKYSGVRYYYWGQGTQVNVSS | high polyreactivity
21 | QVQLVESGGGLVQAGGSLRLSCAASGLTFYQNAMGWYRQAPGKERELVAAISSSGGRTYYADSVKGRFTISRDNAKNTVYLQMNSLKPEDTAVYYCAAYRRYRNWFNYWGQGTQVTVSS | high polyreactivity
22 | QVQLVESGGGLVQAGGSLRLSCAASGLTFYSYAMGWYRQAPGKERELVAAISSSGGNTYYADSVKGRFTISRDNAKNTVYLQMNSLKPEDTAVYYCNVYHWSRVFAIDYYWGQATQVTVSS | high polyreactivity
23 | QVQLVESGGGLVQAGGSLRLSCAASGLTFYTYAMGWYRQAPGKERELVAAISGGGRTHYADSVKGRFTISRDNAKNTVYLQMNSLKPEDTAVYYCAKDKGFLVRYDDLHDYDYWGQGTQVTVSS | low polyreactivity
24 | QVQLVESGGGLVQAGGSLRLSCAASGLTFYTYAMGWYRQAPGKERELVAAISGRGSRTFYADSVKGRFTISRDNAKNTVYLQMNSLKPEDTAVYYCAARVWSSFTGAYDYWGQGTQVTVSS | high polyreactivity
25 | QVQLVESGGGLVQAGGSLRLSCAASGLTFYVYAMGWYRQAPGKEREFVAAITRSGGSTHFADSVKGGFTISRDNAKYTVYLQMNSLKPEDTAVYYGAARAIRYYIRYYYWGQGTQVTVSS | high polyreactivity
26 | QVQLVESGGGLVQAGGSLRLSCAASGLTFYYNTMGWYRQAPGKERELVAAINWSGGRTYYADSVKGRFTISRDNAKNTVYLQMNSLKPEDTAVYYCNAASSRALGYAYDYWGQGTQVTVSS | high polyreactivity
27 | QVQLVESGGGLVQAGGSLRLSCAASGLTFYYYAMGWYRQAPGKEREFVAAISRSGGTTYYADSVKGRFTISRDNAKNTVYLQMISLKPEDTAVYYCNAQWWRYWPSQVIFDYWGQGTQVTVSS | high polyreactivity
28 | QVQLVESGGGLVQAGGSLRLSCAASGLTFYYYAMGWYRQAPGKERELVAAITSGGITYYADSVKGRFTISRDNEKNTVYLQMNSLKPEDTAVYYCAARYHIDTLFYGSRYDYWGQGTQVTVSS | high polyreactivity
29 | QVQLVESGGGLVQAGGSLRLSCAASGLTFYYYAMGWYRQAPGKERELVATISGSGGNTYYADSVKGRFTISRDNAKNTVYLQMNSLKPEDTAVYYCNARYRWWLYYSRDRVYCWGQGTQVTVSS | high polyreactivity
30 | QVQLVESGGGLVQAGGSLRLSCAASGLTFYYYAMGWYRQAPGKERELVATISSGGGRTYADSVKGRFTISRDNAKNTVYLQMNSLKPEDTAVYYCAVRNTKSYWFGYWGQGTQVTVSS | high polyreactivity
31 | QVQLVESGGGLVQAGGSLRLSCAASGLTIASYVMGWYRQAPGKERELVAAISSSGDSTYYADSVKGRFTISRDNAKNTVYLQMNSLKPEDTAVYYCAAKDSVWGQGTQVTVSS | low polyreactivity
32 | QVQLVESGGGLVQAGGSLRLSCAASGLTIQLYAMGWYRQAPGKERELVAAISGSGGRTYYADSVKGRFTISRDNAKNTVYLQMNSLKPEDTAVYYCAARPGSGRSYTSDYWGQGTEVTVSS | high polyreactivity
